Peptide exchange yield data for 49 molecules are collected here from patent US20170189505A1.

This assay addresses HLA-A*24 (human). The assay can be described thus: UV peptide exchange, anti-b2m ELISA.

B1: SEQ ID No 188 peptide RYFKGLVF (peptide)
peptide: RYFKGLVF
B1: the peptide exchange yield is 50 to 75%.

B2: SEQ ID No 194 peptide … (peptide)
peptide: EFGSLHLEFL
B2: the peptide exchange yield is below 20%.

B3: SEQ ID No 185 peptide … (peptide)
peptide: IYKVGAPTI
B3: the peptide exchange yield is 50 to 75%.

B4: SEQ ID No 178 peptide … (peptide)
peptide: IFIEVFSHF
On to B4, for which the peptide exchange yield was 50 to 75%.

B5: SEQ ID No 177 peptide … (peptide)
peptide: VYPWLGALL
Turning to B5, the peptide exchange yield was above 75%.

B6: SEQ ID No 216 peptide … (peptide)
peptide: QYSSVFKSL
Consider B6, for which the peptide exchange yield is above 75%.

B7: SEQ ID No 179 peptide … (peptide)
peptide: MYDSYWRQF
In turn, B7 returned a peptide exchange yield above 75%.

B8: SEQ ID No 278 peptide … (peptide)
peptide: RYISDQLFTNF
On to B8, for which the peptide exchange yield is above 75%.

B9: SEQ ID No 217 peptide … (peptide)
peptide: FFPPTRQMGLLF
B9: the peptide exchange yield is above 75%.

B10: SEQ ID No 203 peptide … (peptide)
peptide: FYSRLLQKF
Take B10: the peptide exchange yield lay within 50 to 75%.

B11: SEQ ID No 189 peptide … (peptide)
peptide: WYVNGVNYF
The molecule B11 came in with a peptide exchange yield of 20 to 49%.

B12: SEQ ID No 274 peptide … (peptide)
peptide: AYLHSHALI
Regarding B12, the peptide exchange yield was above 75%.

B13: SEQ ID No 183 peptide … (peptide)
peptide: VFTSTARAF
In the case of B13, the peptide exchange yield was 50 to 75%.

B14: SEQ ID No 221 peptide … (peptide)
peptide: RYSTGLAGNLL
Consider B14, for which the peptide exchange yield was in the range of 50 to 75%.

B15: SEQ ID No 191 peptide … (peptide)
peptide: VFKASKITF
The molecule B15 had a peptide exchange yield of 50 to 75%.

B16: SEQ ID No 192 peptide … (peptide)
peptide: SYALLTYMI
Molecule B16 returned a peptide exchange yield above 75%.

B17: SEQ ID No 226 peptide … (peptide)
peptide: VYRDETGELF
In turn, B17 came in with a peptide exchange yield of 50 to 75%.

B18: SEQ ID No 190 peptide … (peptide)
peptide: GFFIFNERF
B18 gave a peptide exchange yield of 50 to 75%.

B19: SEQ ID No 172 peptide … (peptide)
peptide: TYTTVPRVAF
Molecule B19 showed a peptide exchange yield above 75%.

B20: SEQ ID No 214 peptide … (peptide)
peptide: LYLKLWNLI
Take B20: the peptide exchange yield lay within 50 to 75%.

B21: SEQ ID No 275 peptide … (peptide)
peptide: EYINQGDLHEF
Molecule B21 returned a peptide exchange yield of 50 to 75%.

B22: SEQ ID No 271 peptide … (peptide)
peptide: LYHDIFSRL
Molecule B22 displayed a peptide exchange yield above 75%.

B23: SEQ ID No 228 peptide … (peptide)
peptide: KYTSWYVAL
Consider B23, for which the peptide exchange yield is above 75%.

B24: SEQ ID No 206 peptide … (peptide)
peptide: EYQENFLSF
Molecule B24 came in with a peptide exchange yield of 50 to 75%.

B25: SEQ ID No 215 peptide YFDKVVTL (peptide)
peptide: YFDKVVTL
The molecule B25 had a peptide exchange yield of 20 to 49%.

B26: SEQ ID No 180 peptide … (peptide)
peptide: IYDDSFIRPVTF
For the molecule B26, the peptide exchange yield was 50 to 75%.

B27: SEQ ID No 205 peptide … (peptide)
peptide: VHIPEVYLI
For the molecule B27, the peptide exchange yield was 50 to 75%.

B28: SEQ ID No 211 peptide … (peptide)
peptide: YYLEVGKTLI
In turn, B28 came in with a peptide exchange yield above 75%.

B29: SEQ ID No 267 peptide … (peptide)
peptide: KYMVYPQTF
Regarding B29, the peptide exchange yield was above 75%.

B30: SEQ ID No 282 peptide … (peptide)
peptide: KFVDSTFYL
For the molecule B30, the peptide exchange yield was above 75%.

B31: SEQ ID No 280 peptide … (peptide)
peptide: RYPDNLKHLYL
For the molecule B31, the peptide exchange yield was above 75%.

B32: SEQ ID No 181 peptide … (peptide)
peptide: LYLDIINLF
B32 had a peptide exchange yield above 75%.

B33: SEQ ID No 208 peptide … (peptide)
peptide: TYTQDFNKF
The molecule B33 came in with a peptide exchange yield of 50 to 75%.

B34: SEQ ID No 219 peptide … (peptide)
peptide: EYPLVINTL
B34 displayed a peptide exchange yield of 50 to 75%.

B35: SEQ ID No 279 peptide … (peptide)
peptide: TYIESASEL
For the molecule B35, the peptide exchange yield lay in the range of 50 to 75%.

B36: SEQ ID No 182 peptide … (peptide)
peptide: IYQLDTASI
With B36, the peptide exchange yield was 50 to 75%.

B37: SEQ ID No 272 peptide … (peptide)
peptide: QYLQDAYSF
As to B37, the peptide exchange yield is above 75%.

B38: SEQ ID No 186 peptide … (peptide)
peptide: IFPQFLYQF
In turn, B38 gave a peptide exchange yield above 75%.

B39: SEQ ID No 184 peptide … (peptide)
peptide: VFQNFPLLF
For the molecule B39, the peptide exchange yield is above 75%.

B40: SEQ ID No 273 peptide … (peptide)
peptide: TYIKPISKL
Take B40: the peptide exchange yield is 50 to 75%.

B41: SEQ ID No 198 peptide … (peptide)
peptide: LYLDKATLI
B41 yielded a peptide exchange yield of 50 to 75%.

B42: SEQ ID No 193 peptide … (peptide)
peptide: RFHPTPLLL
B42 gave a peptide exchange yield above 75%.

B43: SEQ ID No 223 peptide … (peptide)
peptide: KYIPYKYVI
B43 yielded a peptide exchange yield of 50 to 75%.

B44: SEQ ID No 187 peptide … (peptide)
peptide: TYLRDQHFL
The molecule B44 returned a peptide exchange yield above 75%.

B45: SEQ ID No 225 peptide … (peptide)
peptide: YYVYIMNHL
Take B45: the peptide exchange yield lay within 50 to 75%.

B46: SEQ ID No 276 peptide … (peptide)
peptide: VYGFQWRHF
B46 gave a peptide exchange yield above 75%.

B47: SEQ ID No 224 peptide … (peptide)
peptide: QYLENLEKL
With B47, the peptide exchange yield is 50 to 75%.

B48: SEQ ID No 227 peptide … (peptide)
peptide: IFLDYEAGTLSF
The molecule B48 gave a peptide exchange yield above 75%.

B49: SEQ ID No 210 peptide … (peptide)
peptide: IYTMIYRNL
As for B49, the peptide exchange yield is above 75%.
